Reference: the supplement of paper PMC10567573

B1: PLAGL1 (parent)
chain: DPNKMAFGCEECGKKYNTMLGYKR
B2: ZNF207 (parent)
chain: FPSAGQAQAAVQGPVGTDFKPLNS

Variants of: B1
Assay: protein stability index of a GFP-peptide fusion (GPS, HEK-293T) (PSI 1-6); higher = more stable
Details: c terminus: a fixed tail appended
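Note: lentivirally expressed fusions sorted by FACS into six bins by GFP to DsRed ratio, PSI derived from sequencing read proportions per bin multiplied by bin number.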

Protein stability index: each site, then its substitutions
G21: I 2.26, Y 2.06, S 2.87, Q 2.48, H 2.56, M 2.06, T 2.08, K 3.15, V 1.81, E 3.33, D 3.13, N 2.55, A 3.01, W 1.95, C 3.09, R 2.94, F 1.85, P 2.64
R24: P 2.87, Q 3.34, E 4.57, M 2.78, T 2.93, N 3.27, G 2.74, D 3.65, K 4.02, F 2.42, I 2.05, A 3.02, W 1.86, L 2.05, C 2.58, V 2.52, S 3.3, H 3.66, Y 2.61
L20: W 2.73, S 2.59, Y 2.1, V 2.7
Y22: R 3.33, Q 2.72, H 2.18, T 2.24, P 2.02, C 3.69, A 2.53, I 2.8, V 2.94, F 1.92, E 3.26, L 3.15, N 2.78, M 3.01, W 2.9, G 3.07, K 3.72, D 3.5, S 3.47
K23: R 2.35, V 1.79, Y 2.22, F 2.03, E 2.15, M 1.58, W 1.35, A 1.98, S 2.17, I 2.95, L 2.73, T 2.34, G 2.21, C 2.21, D 2.81, P 2.31, N 2.42, H 1.98

Variants of: B2
Assay: as above
Details: c terminus: a fixed tail appended

Protein stability index, by site and new letter:
A9: P 3.53, Q 4.06, D 4.02, T 2.99, V 2.93, W 2.45, C 3.37, N 3.83, G 3.13, I 2.86, H 3.31, M 3.06, L 2.62, S 3.1, K 3.52, Y 2.13, R 3.47, F 2.02, E 3.74
A7: T 3.49, W 2.44, N 3.94, E 3.94, Q 3.5, I 3.15, D 3.98, H 3.55, K 3.49, M 2.93, P 3.51, R 3.26, L 2.27, V 3.36, C 2.47, G 3.58, F 2.17, Y 1.65, S 3.87
F1: N 4.98, E 4.98, C 4.68, I 4.79, D 5.56, R 5.18, Q 5.11, L 5.03, A 5.04, Y 3.29, S 5.11, P 4.82, V 4.92, M 4.96, G 4.88, T 5.3, K 4.65, H 4.89, W 4.75
G5: V 3.96, Q 4.19, N 4.08, W 1.66, Y 1.82, C 2.75, L 3.19, S 3.3, A 2.44, F 1.51, M 3.01, E 4.17, I 4.11, D 4.67, R 3.78, T 4.11, P 4.07, H 3.79, K 4.23
Q12: I 2.54, G 3.37, L 2.67, S 3.36, Y 2.46, K 3.38, C 3.51, E 3.18, A 3.13, P 3.88, T 3.61, H 3.18, V 3.36, N 3.41, D 3.69, R 3.1, F 2.28, M 2.83
P14: K 2.8, F 2.55, H 3.71, C 3.04, I 2.98, G 3.54, A 3.47, D 4.01, E 3.92, L 3.04
V11: F 2.58, D 3.68, P 3.62, M 3.36, Q 3.72, Y 3, H 3.74, I 3.25, C 3.1, W 2.38, G 3.72, R 4.12, L 3.07, E 3.84, K 3.45, A 3.73, T 3.58, N 3.32, S 4.27
Q6: F 2.5, A 3.72, S 3.65, I 2.72, W 1.47, N 3.62, T 3.96, K 2.76, V 3.41, H 3.58, C 2.42, L 2.81, G 3.65, Y 1.94, R 3.01, P 4.23, E 4.16, M 2.8, D 4.37
A4: E 4.58, L 4.25, Q 3.77, F 3.82, R 3.87, H 3.71, V 3.9, G 2.98, T 4.39, N 4.08, W 2.62, D 4.68, I 4.41, P 4.16, C 2.52, M 3.8, Y 3.51, S 3.27, K 3.71
Q8: M 2.72, I 2.76, G 3.77, N 3.57, T 3.47, C 3.23, W 1.89, S 3.68, Y 1.71, K 3.89, D 3.87, V 3.31, P 3.38, A 4.04, E 4.04, H 3.35, F 1.48, L 2.11, R 3.47
S3: L 4.05, P 3.63, M 3.43, K 3.17, R 2.83, D 4.27, I 4.35, E 3.93, W 3.44, G 3.75, Q 3.81, N 3.08, A 3.17, H 3.35, C 2.61, Y 2.34, T 4, F 3.03, V 3.61
G13: H 3.37, Q 3.09, T 3.52, P 3.57, F 2.9, I 3.22, K 3.76, V 3.23, R 3.5, L 3.69, W 2.53, Y 3.12, M 3.38, N 3.58, C 3.4, S 3.69, E 3.79, D 3.74, A 3.26
A10: D 3.69, M 3.18, S 3.73, K 2.87, E 3.8, H 3.55, N 3.13, Y 2.95, L 3.18, G 3.72, C 2.75, W 2.24, P 3.25, R 3.05, Q 3.42, I 3.22, V 2.99, T 3.41, F 2.22
P2: L 3.41, Q 3.81, H 2.26, T 2.17, C 2.7, W 3.65, E 4.71, V 1.97, Y 3.47, S 3.16, N 4.11, D 4.73, A 3.46, G 4.14, K 4.27, F 3.33, R 4.43, I 2.89, M 3.93
